Experimental data: US20240409637A1
Values belong to the substance of their own block, whether it stands above or below them.

How the values were obtained:
[1] = biological target: human CD8 on cells (primary human CD8 positive T cells; T cells of mice expressing hCD8; human PBMC-derived lymphocytes) (human) (UniProt P01732); experiment: cell-based or functional assay
[2] = biological target: human CD8 alpha and beta subunit on JRT3.T3/AP1-Luc/CD28/CD8AB/1G4AB clone 18 reporter T cells (human) (UniProt P01732); experiment: cell-based or functional assay
Sequence of human CD8 alpha and beta subunit on JRT3.T3/AP1-Luc/CD28/CD8AB/1G4AB clone 18 reporter T cells (human) (P01732 22-235, chain 1 of 2): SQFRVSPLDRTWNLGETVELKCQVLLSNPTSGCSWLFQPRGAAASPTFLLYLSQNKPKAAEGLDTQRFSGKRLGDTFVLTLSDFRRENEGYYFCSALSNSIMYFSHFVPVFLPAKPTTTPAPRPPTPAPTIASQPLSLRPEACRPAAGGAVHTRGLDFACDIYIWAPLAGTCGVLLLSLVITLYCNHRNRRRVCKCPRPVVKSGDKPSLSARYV
Sequence of human CD8 alpha and beta subunit on JRT3.T3/AP1-Luc/CD28/CD8AB/1G4AB clone 18 reporter T cells (human) (P10966 22-210, chain 2 of 2, further chain): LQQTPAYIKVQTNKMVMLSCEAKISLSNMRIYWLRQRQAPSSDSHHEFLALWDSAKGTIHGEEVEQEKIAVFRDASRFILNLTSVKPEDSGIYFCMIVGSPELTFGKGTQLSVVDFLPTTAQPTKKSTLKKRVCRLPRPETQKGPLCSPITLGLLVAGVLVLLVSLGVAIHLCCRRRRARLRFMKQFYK

Sequence of human CD8 on cells (primary human CD8 positive T cells; T cells of mice expressing hCD8; human PBMC-derived lymphocytes) (human) (P01732 22-235, chain 1 of 2): as the sequence (P01732 22-235, chain 1 of 2) above
Sequence of human CD8 on cells (primary human CD8 positive T cells; T cells of mice expressing hCD8; human PBMC-derived lymphocytes) (human) (chain, as listed by the source, chain 2 of 2): as the sequence (P10966 22-210, chain 2 of 2, further chain) above

Percent Inhibition of IFNγ Production, one-way MLR Reaction 1, 0.5 nM antibody [1]: 0.5%
Percent Inhibition of IFNγ Production, one-way MLR Reaction 1, 5 nM antibody [1]: 3.9%
Percent Inhibition of IFNγ Production, one-way MLR Reaction 1, 50 nM antibody [1]: -6.6%
Percent Inhibition of IFNγ Production, one-way MLR Reaction 2, 0.5 nM antibody [1]: 2.3%
Percent Inhibition of IFNγ Production, one-way MLR Reaction 2, 5 nM antibody [1]: 3.4%
Percent Inhibition of IFNγ Production, one-way MLR Reaction 2, 50 nM antibody [1]: 25.4%
Substance: isotype control antibody (irrelevant isotype matched antibody)

Reduction of T cell response at 100 nM [%], CD8 T cell/APC luciferase assay [2]: 6.2%
Substance: Isotype 2 (antibody)

IC50 [M], reduction of AP1-luciferase activity in CD8 T cell/APC luciferase assay [2]: 1.61e-10 M
Reduction of T cell response at 100 nM [%], CD8 T cell/APC luciferase assay [2]: 97.9%
Substance: Clone RPA-T8 (commercially available anti-CD8 antibody)

Reduction of T cell response at 100 nM [%], CD8 T cell/APC luciferase assay [2]: 7.4%
Substance: Isotype 1 (antibody)
